Reference: publication PMC4477859

Target: wild-type CENP-A nucleosome arrays with Myc-H4 (UniProt P49450)
Experiment: pull-down

Chain of UniProt P49450 (P49450 whole entry, looked up): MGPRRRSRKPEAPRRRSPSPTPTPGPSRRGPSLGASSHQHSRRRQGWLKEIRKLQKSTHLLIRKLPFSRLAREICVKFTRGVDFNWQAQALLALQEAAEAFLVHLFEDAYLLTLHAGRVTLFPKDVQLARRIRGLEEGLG

In the case of CENP-C (natural protein), the CENP-C to CENP-A nucleosome ratio, low against high saturation arrays is reported as 2 fold.
